{
  "source": "paper PMC6718452",
  "molecular_target": "FITC-labeled amyloid-β (Aβ), aggregated into amyloid-derived diffusible ligands (ADDLs)",
  "experiment": "SEC; FITC-labeled Aβ aggregated by the Freir protocol (ADDLs); solvent PBS",
  "data": [
    {"substance": "FITC-labeled amyloid-β (Aβ), aggregated into amyloid-derived diffusible ligands (ADDLs) (peptide)", "values": [
      {"measurement": "stoichiometry N", "result": 2}
    ]}
  ]
}
